Measured values published in patent US11015206B2, “Compositions and methods comprising sequences having hydroxyphenylpyruvate dioxygenase (HPPD) activity” (PIONEER HI-BRED INTERNATIONAL, INC., priority 2014, dated 2021).
Substitutions are numbered along the chain they refer to.

B1: R7-9070: shuffled maize HPPD, Round 7, variant 9070 (SEQ ID NO:2); backbone for saturation mutagenesis (protein)
chain: MGPTPTATAAGAAVAAASAAEQAAFRLVGHRNFVRFNPRSDRFQTLAFHHVELWCADAASAAGRFSFALGVPLAARSDLSTGNSAHASLLLRSGSLSLLFTAPYAHGADAATAALPSFSAAAARRFAADHGLAVRAVALRVADAEDAFRASVAAGARPAFGPVDLGRGFRLAEVELYGDVVLRYVSYPDGAAGEPFLPGFEGVASPGAADYGLSRFDHIVGNVPELAPAAAYMAGFTGFHEFAEFTTEDVGTTESGLNSMALANNSENVLLPLNEPVHGTKRRSQIQTFLDHHGGPGVQHIALASDDVLRTLREMRARSAMGGFEFLPPPLSDYYDGVRRCAGDVLTEAQINECQELGVMVDRDDQGVLLQIFTKPVGDRPTFFLEIIQRIGCMEKDEKGQEYQKGGCGGFGKGNFGQLFKSIEDYEKSLEAKQAAAAATAQGS
modifications: Zea mays variant form created by artificial means.
notes: backbone for saturation mutagenesis
B2: P056028-B-02 (protein)
chain: B1 chain with P206S, E356K, Q366E, K428R, A438V
modifications: Zea mays variant form created by artificial means.
B3: P056028-A-03 (protein)
chain: B1 chain with A191G, Y211L, Q366E, A432R, Q434R
modifications: Zea mays variant form created by artificial means.
B4: 9070Q366E (protein)
chain: B1 chain with Q366E
modifications: Zea mays variant form created by artificial means.
B5: P056028-B-09 (protein)
chain: B1 chain with G337D, Q366E, M394V, Q434R
modifications: Zea mays variant form created by artificial means.
B6: P056028-G-01 (protein)
chain: B1 chain with Y211L, S214N, R340K, Q366E, A432K, Q434R
modifications: Zea mays variant form created by artificial means.
B7: P056028-G-01R (protein)
chain: B1 chain with Y211L, S214N, R340K, Q366E, M394R, A432K, Q434R
modifications: Zea mays variant form created by artificial means.
B8: P056028-D-03 (protein)
chain: B1 chain with L182M, S214N, Q366E
modifications: Zea mays variant form created by artificial means.
B9: Z. mays wt: maize wild-type HPPD, SEQ ID NO:1 (glycine for proline at position 2) (protein)
chain: MGPTPTAAAAGAAVAAASAAEQAAFRLVGHRNFVRFNPRSDRFHTLAFHHVELWCADAASAAGRFSFGLGAPLAARSDLSTGNSAHASLLLRSGSLSFLFTAPYAHGADAATAALPSFSAAAARRFAADHGLAVRAVALRVADAEDAFRASVAAGARPAFGPVDLGRGFRLAEVELYGDVVLRYVSYPDGAAGEPFLPGFEGVASPGAADYGLSRFDHIVGNVPELAPAAAYFAGFTGFHEFAEFTTEDVGTAESGLNSMVLANNSENVLLPLNEPVHGTKRRSQIQTFLDHHGGPGVQHMALASDDVLRTLREMQARSAMGGFEFMAPPTSDYYDGVRRRAGDVLTEAQIKECQELGVLVDRDDQGVLLQIFTKPVGDRPTLFLEIIQRIGCMEKDEKGQEYQKGGCGGFGKGNFSQLFKSIEDYEKSLEAKQAAAAAAAQGS
modifications: Zea mays

Experiments:
Assay type in all cases: biochemical, Z. mays
[1] = system: 4-hydroxyphenylpyruvate dioxygenase (HPPD); assay: OFF rate ratio: release of inhibitor from pre-formed enzyme-inhibitor complex; settings: for OFF ratio (parameters with tembotrione): Table 5; for Insensitivity, isoxaflutole (DKN), Rate ratio OFF: inhibitor diketonitrile form of isoxaflutole (DKN); for Insensitivity, mesotrione, Rate ratio OFF: inhibitor mesotrione; for Insensitivity, sulcotrione, Rate ratio OFF: inhibitor sulcotrione; for Insensitivity, tembotrione, Rate ratio OFF: inhibitor tembotrione; for Insensitivity, topramezone, Rate ratio OFF: inhibitor topramezone
Method in brief: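 HPPD (7.2 μM) pre-incubated 1 h at RT with inhibitor (8 μM), then diluted into 25 mM Hepes pH 7, 2 mM ascorbate, 10 μM FeSO4, 100 μM HPP, 50 nM HGD; A320 followed 12 min. Ratio = steady-state rate with inhibitor over initial rate of inhibitor-free enzyme.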

[2] = system: 4-hydroxyphenylpyruvate dioxygenase (HPPD); assay: ON rate ratio: HPPD reaction rate with vs without inhibitor in the 70 to 90 second interval; settings: for ON ratio (parameters with tembotrione): Table 5; for Insensitivity, isoxaflutole (DKN), Rate ratio ON: inhibitor diketonitrile form of isoxaflutole (DKN); for Insensitivity, mesotrione, Rate ratio ON: inhibitor mesotrione; for Insensitivity, sulcotrione, Rate ratio ON: inhibitor sulcotrione; for Insensitivity, tembotrione, Rate ratio ON: inhibitor tembotrione; for Insensitivity, topramezone, Rate ratio ON: inhibitor topramezone
Method in brief: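 Time courses of HPPD reactions, 60 or 120 nM enzyme with 100 μM HPP substrate, run with and without 4 μM inhibitor (e.g. mesotrione, tembotrione). Value is the rate with inhibitor over rate without, taken over 70–90 s; higher ratio reflects slower kON.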

[3] = system: 4-hydroxyphenylpyruvate dioxygenase (HPPD); assay: HPPD activity coupled assay with HGD; substrate saturation kinetic parameters (kcat, KM)
Method in brief: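 Coupled continuous assay: His-tagged HPPD (5 to 240 nM, E. coli-expressed, Ni-NTA-purified) with 50 nM P. aeruginosa HGD in 25 mM Hepes pH 7, 2 mM ascorbate, 10 μM FeSO4; maleylacetoacetate followed at 320 nm. KM and Vmax from Lineweaver-Burke fits over 3.33–100 μM HPP.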

[4] = Table 7, tembotrione, combinatorial variants
[5] = Table 2, E. coli purified proteins
[6] = Table 6, single substitutions in SEQ ID NO:2
[7] = substrate saturation kinetic analysis

Row | Molecule | OFF rate ratio [1, 4] | Insensitivity, isoxaflutole (DKN), Rate ratio OFF [1] | Insensitivity, mesotrione, Rate ratio OFF [1] | Insensitivity, sulcotrione, Rate ratio OFF [1] | Insensitivity, tembotrione, Rate ratio OFF [1] | Insensitivity, topramezone, Rate ratio OFF [1] | ON rate ratio [2, 4] | Insensitivity, isoxaflutole (DKN), Rate ratio ON [2] | Insensitivity, mesotrione, Rate ratio ON [2] | Insensitivity, sulcotrione, Rate ratio ON [2] | Insensitivity, tembotrione, Rate ratio ON [2] | Insensitivity, topramezone, Rate ratio ON [2] | Km [3, 7] | kcat [3, 7] | further results
1 | B1 | 0.116 | 0.20 | 0.89 | 0.71 | 0.22 | 0.25 | 0.744 | 0.82 | 0.66 | 0.81 | 0.80 | 0.79 | 2.91 µM | 1.48 s⁻¹ | OFF ratio (parameters with tembotrione) ([1]; tembotrione): 0.21; OFF rate ratio ([1]; mesotrione): 0.83; ON ratio (parameters with tembotrione) ([2]; tembotrione): 0.74; ON rate ratio ([2]; mesotrione): 0.67; Km [3, 5]: 2.9 µM; kcat [3, 5]: 1.48 s⁻¹; Km ([3]; Table 6): 2.35 µM; kcat [3, 6]: 0.918 s⁻¹
2 | B2 | 0.469 | 0.43 | 1.00 | 1.00 | 0.47 | 0.53 | 0.800 | 0.80 | 0.63 | 0.81 | 0.80 | 0.79 | 3 µM | 0.978 s⁻¹ | –
3 | B3 | 0.243 | 0.43 | 1.00 | 0.93 | 0.40 | 0.47 | 0.748 | 0.81 | 0.70 | 0.80 | 0.80 | 0.81 | 2.98 µM | 1.05 s⁻¹ | –
4 | B4 | 0.273 | 0.39 | 1.00 | 1.13 | 0.33 | 0.57 | 0.760 | 0.83 | 0.72 | 0.80 | 0.82 | 0.81 | 1.57 µM | 0.513 s⁻¹ | –
5 | B5 | 0.187 | 0.33 | 1.00 | 0.88 | 0.35 | 0.48 | 0.648 | 0.77 | 0.67 | 0.78 | 0.75 | 0.80 | 3 µM | 1.55 s⁻¹ | –
6 | B6 | 0.320 | 0.42 | 1.00 | 1.14 | 0.47 | 0.57 | 0.742 | 0.77 | 0.71 | 0.78 | 0.77 | 0.80 | 2.06 µM | 0.69 s⁻¹ | –
7 | B7 | 0.280 | 0.38 | 1.00 | 1.11 | 0.28 | 0.53 | 0.719 | 0.77 | 0.73 | 0.75 | 0.72 | 0.81 | 2.02 µM | 1.18 s⁻¹ | –
8 | B8 | 0.453 | 0.40 | 1.00 | 1.11 | 0.45 | 0.58 | 0.770 | 0.76 | 0.68 | 0.76 | 0.77 | 0.80 | 2.08 µM | 0.737 s⁻¹ | –
9 | B9 | – | 0.01 | 0.31 | 0.28 | 0.04 | 0.045 | – | 0.08 | 0.20 | 0.30 | 0.20 | 0.100 | 6.41 µM | 3.65 s⁻¹ | OFF ratio (parameters with tembotrione) ([1]; tembotrione): 0.03; OFF rate ratio ([1]; mesotrione): 0.31; time span to reach the steady state (dissociation from inhibitor) ([1]; mesotrione, enzyme 240 nM): 280 s; ON ratio (parameters with tembotrione) ([2]; tembotrione): 0.17; ON rate ratio ([2]; mesotrione): 0.20; ON rate ratio ([2]; mesotrione, listed as wild type): 0.2; Km [3, 5]: 6.4 µM; kcat [3, 5]: 3.65 s⁻¹; Km ([3]; Table 6): 6.4 µM; kcat [3, 6]: 3.65 s⁻¹; kcat ([3]; text b374): about 220 min^−1
